Experimental data as given in patent publication US20230280343A1.

Target: p300 (UniProt Q09472)
Assay: not stated; comparator to the H-MAP-1 ELISA

p300, sequence (Q09472 323-423 limits assumed): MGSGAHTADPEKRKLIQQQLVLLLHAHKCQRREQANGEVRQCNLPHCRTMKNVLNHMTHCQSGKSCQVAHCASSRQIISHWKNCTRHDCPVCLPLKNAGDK

“native HIF1α protein (from UniProt Q16665 786-826)” gave a Kd of 0.38 nM.
